Article PMC3590194

Test system: bivalirudin (Angiomax), TMR-labeled (synthetic)
Experiment: fluorescence anisotropy
Conditions: 5 mM Mg2+?; BB = PBS (no MgCl2/CaCl2) with 5 mM MgCl2 (flow cytometry, 1 h incubation; FA buffer not stated in the material); pH and binding temperature not stated

| Sequence | Kd |
| --- | --- |
| ATCGTCTGCTCCGTCCAATACGTAACATCCCCGTAATACTACTACGGTCGTGCTGGTTTGGTGTGAGGTCGTGC [JPB2] | 5.99 µM |
| ATCGTCTGCTCCGTCCAATATATTGTGTGACCCCCCTCTTGTTTTGGTGTGAGGTCGTGC [JPB5] | 5.76 µM |
